Experimental data: the RNAGym collection of RNA variant scans (doi:10.1073/pnas.2313332121)
Fewer inactive variants are shown than the library holds.

B1: TPR 5TU (parent)
chain: GGAUCUUCUCGAUCUAACAAAAAAGACAAAUCUGCCACAAAGCUUGAGAGCAUCUUCGGAUGCAGAGGCGGCAGCCUUCGGUGGCGCGAUAGCGCCAACGUUCUCAACUAUGACACGCAAAACGCGUGCUCCGUUGAAUGGAGUUUAUCAUG

Variants of: B1
Test: polymerase ribozyme fitness, log enrichment relative to wild type (log ratio); higher = more active; in vitro selection for triplet polymerase activity
Procedure, shortened: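 PCR was used to build mutant libraries for each subunit of a heterodimeric triplet polymerase ribozyme, which were then transcribed. A single in vitro selection round, in triplicate, used a frozen incubation at −7 °C and recovered extended constructs by gel excision, streptavidin beads and RT-PCR. Fitness is the logarithm of genotype enrichment relative to wild-type enrichment, averaged over replicates with inverse-variance weights. The logarithm is base 2, and after Illumina sequencing only genotypes with ≥10 input reads and ≥1 read per output were kept.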

Compared with A12U A21C G80C G81A C93G G140U, G11C G92U is higher in “polymerase ribozyme fitness (log ratio)” value: at most -4.2 for the first, -1.84 for the second.

Going from C10U U13C A52U C96A to U13C C43A A73C G92U, the “polymerase ribozyme fitness (log ratio)” value falls from -3.64 to at most -4.2.

Compared with G11C C93A C125U, A12U A19U A37U U55A is higher in “polymerase ribozyme fitness (log ratio)” value: at most -4.2 for the first, -3.16 for the second.

G11C A37C U82G C85G C105U C116G and A12U A23G C87U A150C cannot be ordered by “polymerase ribozyme fitness (log ratio)” value: at most -4.2 for the first, at most -4.2 for the second.

U13C U44A C87A G126U and U13C A40G C43U C87U G128C U139A cannot be ordered by “polymerase ribozyme fitness (log ratio)” value: at most -4.2 for the first, at most -4.2 for the second.

Compared with G11C A19C G70U G86A A89U A106G G136C, A12C A97G U102G is higher in “polymerase ribozyme fitness (log ratio)” value: at most -4.2 for the first, -3.89 for the second.

Going from A12G A37C G86A C95A to A12C C96G C99U, the “polymerase ribozyme fitness (log ratio)” value rises from at most -4.2 to -2.39.

Going from A12U A22G C35U G58A A91C A98G C116G to G11A A137C C149U, the “polymerase ribozyme fitness (log ratio)” value falls from -4.07 to at most -4.2.

First: A12G C85A C118A
Second: G11U G88C
The “polymerase ribozyme fitness (log ratio)” value of the first is higher: -0.759 for the first, at most -4.2 for the second.

Going from A12U U56A C93U to G11U G50C A73G, the “polymerase ribozyme fitness (log ratio)” value falls from -1.4 to at most -4.2.

Compared with G11U A16G C36A A49C C95G C118U G133U, A12U G58C C95A is higher in “polymerase ribozyme fitness (log ratio)” value: at most -4.2 for the first, -1.44 for the second.

G11A U61A G67C C87G G141U and A12C A19C G58C G62A C63U A97G cannot be ordered by “polymerase ribozyme fitness (log ratio)” value: at most -4.2 for the first, at most -4.2 for the second.

Compared with A12U G25U A52C U56A G67A A91G C103G, U13C G25A A29C C36G C118A is higher in “polymerase ribozyme fitness (log ratio)” value: at most -4.2 for the first, -4.18 for the second.

A12U G46U G71U A142G and G11U A40U G84A C132A G143C cannot be ordered by “polymerase ribozyme fitness (log ratio)” value: at most -4.2 for the first, at most -4.2 for the second.

Compared with U13C A20U G48C C96G, A12C A24G G50C C72U C87G U111C is lower in “polymerase ribozyme fitness (log ratio)” value: -2.62 for the first, at most -4.2 for the second.

First: A12G A23G U31A C35U U56A
Second: G11A A20U C54A C87G G100C U145A
The “polymerase ribozyme fitness (log ratio)” value of the first is higher: -3.98 for the first, at most -4.2 for the second.

Compared with U13A A37G C93U, G11U A24U G50A U56A A60G C87U G126A U146G is lower in “polymerase ribozyme fitness (log ratio)” value: -3.74 for the first, at most -4.2 for the second.

Going from A12U G59C A89U A91U U101C U144C to U13A A24U G34A G94C G126C, the “polymerase ribozyme fitness (log ratio)” value rises from at most -4.2 to -3.18.

G11U C85A G86U U134G A150G and C10U U15C A39U G48C C76A C85G G88A U90G G140U cannot be ordered by “polymerase ribozyme fitness (log ratio)” value: at most -4.2 for the first, at most -4.2 for the second.

First: G11U A28C A49C C51A U53A C57U C95A G140A
Second: A12G A39G
The “polymerase ribozyme fitness (log ratio)” value of the first is lower: at most -4.2 for the first, -1.53 for the second.

Going from A12G A39C to G11U C27G C35A C95U C131G G152U, the “polymerase ribozyme fitness (log ratio)” value falls from -1.68 to -3.68.

Going from U13A C18U C51U G86A to G11U C18G A21C U31C C57U A91G A113C G143U, the “polymerase ribozyme fitness (log ratio)” value falls from -2.27 to at most -4.2.

A12C A29G C93U U104A U134A and A12U A16G A40C U55A G81A C118G C129A cannot be ordered by “polymerase ribozyme fitness (log ratio)” value: at most -4.2 for the first, at most -4.2 for the second.

Compared with G11U C57U G58A U104G C105U, C10U U56A G67C G86C C96A G126U is lower in “polymerase ribozyme fitness (log ratio)” value: -3.72 for the first, at most -4.2 for the second.

First: U13A A24U C96G
Second: A12G C95U C105G A106U
The “polymerase ribozyme fitness (log ratio)” value of the first is higher: -1.33 for the first, -4.1 for the second.

Compared with A12C U56A G59C C96A U101C, G11C A26G C93A A120U G126C is lower in “polymerase ribozyme fitness (log ratio)” value: -0.609 for the first, -3.54 for the second.

First: A12U G84U G141C
Second: G11C A30G U53A G58A C95A
The “polymerase ribozyme fitness (log ratio)” value of the first is higher: -2.48 for the first, at most -4.2 for the second.

A12G C38U G86A C87U A121C G136A and G11U A12U A30U U55A C85U C95U A142U cannot be ordered by “polymerase ribozyme fitness (log ratio)” value: at most -4.2 for the first, at most -4.2 for the second.

A12C C35U A39G G59A C85A C87U and A12C A66C cannot be ordered by “polymerase ribozyme fitness (log ratio)” value: at most -4.2 for the first, at most -4.2 for the second.

U13A A49C G50C C51U G62C C76A G81A C85U G112A G124U and U13C G59U C93G A138G cannot be ordered by “polymerase ribozyme fitness (log ratio)” value: at most -4.2 for the first, at most -4.2 for the second.

Going from A12U A29C C87A G94U to A12G A22C U101G U127C, the “polymerase ribozyme fitness (log ratio)” value rises from at most -4.2 to -1.93.

A12U C18A C51A U55G C87U G94A G143U and U13A A21U U55C G62C U82A G100C C105G G112U C131U cannot be ordered by “polymerase ribozyme fitness (log ratio)” value: at most -4.2 for the first, at most -4.2 for the second.

Compared with G11A C96G, A12C A40C C87A C93U G94C A110G A142U is lower in “polymerase ribozyme fitness (log ratio)” value: -1.49 for the first, at most -4.2 for the second.

Compared with A12C A41G C87A A89C U144A, A12U C93G is higher in “polymerase ribozyme fitness (log ratio)” value: at most -4.2 for the first, -3.28 for the second.

Going from G11U C38G G46A to G11A C105U, the “polymerase ribozyme fitness (log ratio)” value rises from -2.87 to -1.12.

G11C G59A A60C and A12U C14A G58C C85A are within 0.2 log units of each other in “polymerase ribozyme fitness (log ratio)” value: -3.14 for the first, -3.13 for the second.

A12G A20G A26U A41C C54U U77C U102C U146G and C10U U31A C57A U61A U77C C95A C99U C116U cannot be ordered by “polymerase ribozyme fitness (log ratio)” value: at most -4.2 for the first, at most -4.2 for the second.

First: G11U A29U U55G G92U C93G C95A G133A U144A A150C
Second: A12U U53A
The “polymerase ribozyme fitness (log ratio)” value of the first is lower: at most -4.2 for the first, -1.75 for the second.

Compared with U13A A47U G86U C132U G140A, U13A C72U U82C is higher in “polymerase ribozyme fitness (log ratio)” value: -3.17 for the first, -1.38 for the second.

Compared with G11U A22G G59U G65C A98U U127C C129G, U13A A47G U82G C95G is higher in “polymerase ribozyme fitness (log ratio)” value: at most -4.2 for the first, -3.73 for the second.

G11U C32A C54U C57U G92C U148G U151G and G11U A28G A41U U61G G68A C96U A97C C108U G143U C149A cannot be ordered by “polymerase ribozyme fitness (log ratio)” value: at most -4.2 for the first, at most -4.2 for the second.

Going from G11U G83A C96U to G11U A21U A37G A52C C85U, the “polymerase ribozyme fitness (log ratio)” value falls from -0.589 to -4.18.
